Source: patent publication US9963506B2, “Human-mouse chimeric anti-CD147 antibody with non-fucosylated glycosylation” (Fourth Military Medical University, priority 2015, dated 2018)

Biological target: T1, CD147^+ A549 cells (Homo sapiens, UniProt P35613)
T1 construct: endogenous in cells; host or cells: A549 (human lung cancer cell line)
T1 sequence (P35613 22-269 isoform P35613-2 limits assumed): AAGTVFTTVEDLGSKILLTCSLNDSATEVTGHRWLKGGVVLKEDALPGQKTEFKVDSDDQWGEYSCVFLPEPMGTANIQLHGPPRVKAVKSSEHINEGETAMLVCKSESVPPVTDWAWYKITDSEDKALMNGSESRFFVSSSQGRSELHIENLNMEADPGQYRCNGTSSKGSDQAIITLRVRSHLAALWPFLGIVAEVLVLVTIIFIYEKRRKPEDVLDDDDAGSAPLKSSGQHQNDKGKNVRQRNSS
Test: Antigen-binding activity by flow cytometry
Description: The antibody concentration is 0.001 μg/mL, 0.01 μg/mL, 0.1 μg/mL, 1 μg/ml and 10 μg/mL, respectively.
A549 cells (10^6 cells) were incubated with the Metuzumab (HcHAb18) and cHAb18 antibody, respectively, in PBS with 0.1% BSA at 4° C. for 1 h. After three washes in PBS with 0.1% BSA, cells were incubated with the FITC-conjugated Rabbit anti-Human IgG Fc Secondary Antibody (Pierce) at 4° C. in the dark for 45 min. Cells were then washed three times and suspended in PBS for analysis using a FACS Calibur flow cytometer (BD, New Jersey, U.S.). Relative antigen expression is reported as median fluorescence intensity (MFI).

CD147-binding ability, Metuzumab compared with cHAb18 (FIG. 4): similar | Binding to CD147^+ A549 cells (FIG. 4, 0.001-10 μg/mL): bound
Substance: cHAb18: human-mouse chimeric anti-CD147 antibody, variable domains from HAb18, human IgG1 constant domains, fucosylated (CHO K1)
